Results taken from patent publication US8357523B2, “Beta-glucosidase variant enzymes and related polynucleotides” (Codexis, Inc., priority 2009, dated 2013).

Test: High throughput cellobiose assay: fold improvement in cellobiase activity of CelA variants over a control enzyme (Tables 2A-2D, 3, 5, 6, 7)
Assay type: biochemical
Conditions: 3.3 g/l cellobiose, 55° C. and pH 6.0

Row | Molecule | Fold improvement over Control Variant No. 5 from Table 2A
1 | 159 (protein) STAIAQEGAAPAAILHPEKWPRPATQRLIDPAVEKRVDALLKQLSVEEKVGQVIQGDIGTITPEDLRKYPLGSILAGGDSGPNGDDRAPPKEWLDLADAFYRVSLEKRPGHTPIPVLFGIDAVHGHGNIGSATIFPHNIALGATRDPELLRRIGEVTAVEMTATGIDWTFAPALSVVRDDRWGRTYEGFSEDPEIVASYSAAIVEGVQGKFGSKDFMAPGRIVACAKHFLADGGTDQGRDQGDARISEDELIRIHNAGYPPAIDAGVLTVMASFSSWQGIKHHGHKQLLTDVLKGQMGFNGFIVGDWNAHDQVPGCTKFNCPTSLIAGLDMYMAADSWKQLYENTLAQVKDGTIPMARLDDAVRRILRVKVLAGLFEKPAPKDRPGLPGLETLGSPEHRAVGREAVRKSLVLLKNDKGTLPLSPKARVLVAGDGADNIGKQSGGWTISWQGTGNRNDEFPGATSILGGIRDAVADAGGSVEFDVAGQYKTKPDVAIVVFGEEPYAEFQGDVETLEYQPDQKQDLALLKKLKDQGIPVVAVFLSGRPMWVNPELNASDAFVAAWLPGTEGGGVADVLFTDKAGKVQHDFAGKLSYSWPRTAAQTTVNRGDADYNPLFAYGYGLTYKDKSKVGTLPEESGVPAEARQNAGIYFRAGALRLPGRFL | +++ (+++ = 6 to 13 fold improvement over control Variant No. 2)
2 | 164 (protein) STAIAQEGAAPAAILHPEKWPRPATQRLIDPAVEKRVDALLKQLSVEEKVGQVIQGDIGTITPEDLRKYPLGSILAGGDSGPNGDDRAPPKEWLDLADAFYRVSLEKRPGHTPIPVLFGIDAVHGHGKIGSATIFPHNIALGATRSPELLRRIGEVTAVEMAATGIDWTFAPALSVVRDDRWGRTYEGFSEDPEIVAAYSAAIVEGVQGKFGSKDFMAPGRIVACAKHFLADGGTDQGRDQGDARISEDELIRIHNAGYPPAIDAGVLTVMASFSSWQGIKHHGHKQLLTDVLKGQMGFNGFIVGDWNAHDQVPGCTKFNCPTSLIAGLDMYMAADSWKQLYENTLAQVKDGTIPMARLDDAVRRILRVKVLAGLFEKPAPKDRPGLPGLETLGSPEHRAVGREAVRKSLVLLKNDKGTLPLSPKARVLVAGDGADNIGKQSGGWTISWQGTGNRNDEFPGATSILGGIRDAVADAGGSVEFDVAGQYKTKPDVAIVVFGEEPYAEFQGDVETLEYQPDQKQDLALLKKLKDQGIPVVAVFLSGRPMWVNPELNASDAFVAAWLPGTEGGGVADVLFTDKAGKVQHDFAGKLSYSWPRTAAQTTVNRGDADYNPLFAYGYGLTYKDKSKVGTLPEESGVPAEARQNAGIYFRAGALRLPGRFL | +++ (+++ = 6 to 13 fold improvement over control Variant No. 2)
3 | 163 (protein) STAIAQEGAAPAAILHPEKWPRPATQRLIDPAVEKRVDALLKQLSVEEKVGQVIQGDIGTITPEDLRKYPLGSILAGGDSGPNGDDRAPPKEWLDLADAFYRVSLEKRPGHTPIPVLFGIDAVHGHGKIGSATIFPHNIALGATRSPELLRRIGEVTAVEMTATGIDWTFAPCLSVVRDDRWGRTYEGFSEDPEIVASYSAAIVEGVQGKYGSKDFMAPGRIVASAKHFLADGGTDQGRDQGDARISEDELIRIHNAGYPPAIDAGVLTVMASFSSWQGIKHHGHKQLLTDVLKGQMGFNGFIVGDWNAHDQVPGCTKFNCPTSLIAGLDMYMAADSWKQLYENTLAQVKDGTIPMARLDDAVRRILRVKVLAGLFEKPAPKDRPGLPGLETLGSPEHRAVGREAVRKSLVLLKNDKGTLPLSPKARVLVAGDGADNIGKQSGGWTISWQGTGNRNDEFPGATSILGGIRDAVADAGGSVEFDVAGQYKTKPDVAIVVFGEEPYAEFQGDVETLEYQPDQKQDLALLKKLKDQGIPVVAVFLSGRPMWVNPELNASDAFVAAWLPGTEGGGVADVLFTDKAGKVQHDFAGKLSYSWPRTAAQTTVNRGDADYNPLFAYGYGLTYKDKSKVGTLPEESGVPAEARQNAGIYFRAGALRLPGRFL | +++ (+++ = 6 to 13 fold improvement over control Variant No. 2)
4 | 160 (protein) STAIAQEGAAPAAILHPEKWPRPATQRLIDPAVEKRVDALLKQLSVEEKVGQVIQGDIGTITPEDLRKYPLGSILAGGNSGPNGDDRAPPKEWLDLADAFYRVSLEKRPGHTPIPVLFGIDAVHGHGNIGSATIFPHNIALGATRSPELLRRIGEVTAQEMAATGIDWTFAPALSVVRDDRWGRTYEGFSEDPEIVAAYSPAIVEGVQGKYGSKDFMAPGRAVACAKHFLADGGTDQGRDQGDARISEDELIRIHNAGYPPAIDAGVLTVMASFSSWQGIKHHGHKQLLTDVLKGQMGFNGFIVGDWNAHDQVPGCTKFNCPTSLIAGLDMYMAADSWKQLYENTLAQVKDGTIPMARLDDAVRRILRVKVLAGLFEKPAPKDRPGLPGLETLGSPEHRAVGREAVRKSLVLLKNDKGTLPLSPKARVLVAGDGADNIGKQSGGWTISWQGTGNRNDEFPGATSILGGIRDAVADAGGSVEFDVAGQYKTKPDVAIVVFGEEPYAEFQGDVETLEYQPDQKQDLALLKKLKDQGIPVVAVFLSGRPMWVNPELNASDAFVAAWLPGTEGGGVADVLFTDKAGKVQHDFAGKLSYSWPRTAAQTTVNRGDADYNPLFAYGYGLTYKDKSKVGTLPEESGVPAEARQNAGIYFRAGALRLPGRFL | +++ (+++ = 6 to 13 fold improvement over control Variant No. 2)
5 | 165 (protein) STAIAQEGAAPAAILHPEKWPRPATQRLIDPAVEKRVDALLKQLSVEEKVGQVIQGDIGTITPEDLRKYPLGSILAGGNSGPNGDDRAPPKEWLDLADAFYRVSLEKRPGHTPIPVLFGIDAVHGHGNIGSATIFPHNIALGMTRDPELLRRIGEVTAVEMAATGIDWTFAPALSVVRDDRWGRTYEGFSEDPEIVAAYSPAIVEGVQGKFGSKDFMAPGRIVACAKHFLADGGTDQGRDQGDARISEDELIRIHNAGYPPAIDAGVLTVMASFSSWQGIKHHGHKQLLTDVLKGQMGFNGFIVGDWNAHDQVPGCTKFNCPTSLIAGLDMYMAADSWKQLYENTLAQVKDGTIPMARLDDAVRRILRVKVLAGLFEKPAPKDRPGLPGLETLGSPEHRAVGREAVRKSLVLLKNDKGTLPLSPKARVLVAGDGADNIGKQSGGWTISWQGTGNRNDEFPGATSILGGIRDAVADAGGSVEFDVAGQYKTKPDVAIVVFGEEPYAEFQGDVETLEYQPDQKQDLALLKKLKDQGIPVVAVFLSGRPMWVNPELNASDAFVAAWLPGTEGGGVADVLFTDKAGKVQHDFAGKLSYSWPRTAAQTTVNRGDADYNPLFAYGYGLTYKDKSKVGTLPEESGVPAEARQNAGIYFRAGALRLPGRFL | +++ (+++ = 6 to 13 fold improvement over control Variant No. 2)
6 | 77 (protein) STAIAQEGAAPAAILHPEKWPRPATQRLIDPAVEKRVDALLKQLSVEEKVGQVIQGDIGTITPEDLRKYPLGSILAGGNSGPNGDDRAPPKEWLDLADAFYRVSLEKRPGHTPIPVLFGIDAVHGHGNIGSATIFPHNIALGATRDPELLRRIGEVTAVEMAATGIDWTFAPALSVVRDDRWGRTYEGFSEDPEIVAAYSPAIVEGVQGKFGSKDFMAPGRIVACAKHFLADGGTDQGRDQGDARISEDELIRIHNAGYPPAIDAGVLTVMASFSSWQGIKHHGHKQLLTDVLKGQMGFNGFIVGDWNAHDQVPGCTKFNCPTSLIAGLDMYMAADSWKQLYENTLAQVKDGTIPMARLDDAVRRILRVKVLAGLFEKPAPKDRPGLPGLETLGSPEHRAVGREAVRKSLVLLKNDKGTLPLSPKARVLVAGDGADNIGKQSGGWTISWQGTGNRNDEFPGATSILGGIRDAVADAGGSVEFDVAGQYKTKPDVAIVVFGEEPYAEFQGDVETLEYQPDQKQDLALLKKLKDQGIPVVAVFLSGRPMWVNPELNASDAFVAAWLPGTEGGGVADVLFTDKAGKVQHDFAGKLSYSWPRTAAQTTVNRGDADYNPLFAYGYGLTYKDKSKVGTLPEESGVPAEARQNAGIYFRAGALRLPGRFL | ++ (++ = 1.1 to 6 fold improvement over control Variant No. 2)
7 | 162 (protein) STAIAQEGAAPAAILHPEKWPRPATQRLIDPAVEKRVDALLKQLSVEEKVGQVIQGDIGTITPEDLRKYPLGSILAGGNSGPNGDDRAPPKEWLDLADAFYRVSLEKRPGHTPIPVLFGIDAVHGHGNIGSATIFPHNIALGATRDPELLRRIGEVTAVEMAATGIDWTFAPCLSVVRDDRWGRTYEGFSEDPEIVAAYSPAIVEGVQGKYGSKDFMAVGRIVASAKHFLADGGTDQGRDQGDARISEDELIRIHNAGYPPAIDAGVLTVMASFSSWQGIKHHGHKQLLTDVLKGQMGFNGFIVGDWNAHDQVPGCTKFNCPTSLIAGLDMYMAADSWKQLYENTLAQVKDGTIPMARLDDAVRRILRVKVLAGLFEKPAPKDRPGLPGLETLGSPEHRAVGREAVRKSLVLLKNDKGTLPLSPKARVLVAGDGADNIGKQSGGWTISWQGTGNRNDEFPGATSILGGIRDAVADAGGSVEFDVAGQYKTKPDVAIVVFGEEPYAEFQGDVETLEYQPDQKQDLALLKKLKDQGIPVVAVFLSGRPMWVNPELNASDAFVAAWLPGTEGGGVADVLFTDKAGKVQHDFAGKLSYSWPRTAAQTTVNRGDADYNPLFAYGYGLTYKDKSKVGTLPEESGVPAEARQNAGIYFRAGALRLPGRFL | +++ (+++ = 6 to 13 fold improvement over control Variant No. 2)
8 | 166 (protein) STAIAQEGAAPAAILHPEKWPRPATQRLIDPAVEKRVDALLKQLSVEEKVGQVIQGDIGTITPEDLRKYPLGSILAGGDSGPNGDDRAPPKEWLDLADAFYRVSLEKRPGHTPIPVLFGIDAVHGHGNIGSATIFPHNIALGATRDPELLRRIVEVTAVEMAATGIDWTFAPALSVVRDDRWGRTYEGFSEDPEIVAAYSAAIVEGVQGKYGSKDFMAPGRIVACAKHFLADGGTDQGRDQGDARISEDELIRIHNAGYPPAIDAGVLTVMASFSSWQGIKHHGHKQLLTDVLKGQMGFNGFIVGDWNAHDQVPGCTKFNCPTSLIAGLDMYMAADSWKQLYENTLAQVKDGTIPMARLDDAVRRILRVKVLAGLFEKPAPKDRPGLPGLETLGSPEHRAVGREAVRKSLVLLKNDKGTLPLSPKARVLVAGDGADNIGKQSGGWTISWQGTGNRNDEFPGATSILGGIRDAVADAGGSVEFDVAGQYKTKPDVAIVVFGEEPYAEFQGDVETLEYQPDQKQDLALLKKLKDQGIPVVAVFLSGRPMWVNPELNASDAFVAAWLPGTEGGGVADVLFTDKAGKVQHDFAGKLSYSWPRTAAQTTVNRGDADYNPLFAYGYGLTYKDKSKVGTLPEESGVPAEARQNAGIYFRAGALRLPGRFL | +++ (+++ = 6 to 13 fold improvement over control Variant No. 2)
